From paper PMC5714209

Target: A3B 193 CTD (human) (UniProt Q9UH17)
Experiment: SEC

stoichiometry N: 2
Substance: A3B 193 CTD (from UniProt Q9UH17 193-382) (domain or fragment)
